Reference: patent US20250057968A1, “ANTI-DLL3 ANTIBODY AND PHARMACEUTICAL USE THEREOF, AND ANTIBODY-DRUG CONJUGATE CONTAINING ANTI-DLL3 ANTIBODY” (Jiangsu Hengrui Pharmaceuticals Co., Ltd., priority 2021, published 2025)

T1: Human DLL3 full-length protein on cells (human, UniProt Q9NYJ7 27-618)
T1 construct: H1184 and DMS53 express DLL3 themselves; The cell line is named under assay; also called H1184 cells; DLL3/H82
T1 sequence: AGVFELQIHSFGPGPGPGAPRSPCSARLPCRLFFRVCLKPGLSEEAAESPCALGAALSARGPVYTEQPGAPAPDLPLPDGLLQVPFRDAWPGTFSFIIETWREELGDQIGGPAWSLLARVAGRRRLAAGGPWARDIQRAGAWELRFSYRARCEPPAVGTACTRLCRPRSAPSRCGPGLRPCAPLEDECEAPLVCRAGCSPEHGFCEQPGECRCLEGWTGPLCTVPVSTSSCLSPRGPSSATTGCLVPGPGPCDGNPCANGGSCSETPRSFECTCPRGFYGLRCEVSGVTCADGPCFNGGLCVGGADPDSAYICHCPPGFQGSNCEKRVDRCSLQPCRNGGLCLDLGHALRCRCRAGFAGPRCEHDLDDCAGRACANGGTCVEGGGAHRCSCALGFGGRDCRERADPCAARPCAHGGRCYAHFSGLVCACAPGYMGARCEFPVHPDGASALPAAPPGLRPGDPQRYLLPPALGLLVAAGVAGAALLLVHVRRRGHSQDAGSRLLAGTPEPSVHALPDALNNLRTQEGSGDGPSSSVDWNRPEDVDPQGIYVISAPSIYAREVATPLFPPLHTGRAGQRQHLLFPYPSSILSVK

T2: Cynomolgus monkey DLL3 full-length protein on CHO-s cells (cynomolgus monkey, UniProt Q9NYJ7 27-618 (human entry))
T2 construct: also called cynoDLL3/CHO-s
T2 chain: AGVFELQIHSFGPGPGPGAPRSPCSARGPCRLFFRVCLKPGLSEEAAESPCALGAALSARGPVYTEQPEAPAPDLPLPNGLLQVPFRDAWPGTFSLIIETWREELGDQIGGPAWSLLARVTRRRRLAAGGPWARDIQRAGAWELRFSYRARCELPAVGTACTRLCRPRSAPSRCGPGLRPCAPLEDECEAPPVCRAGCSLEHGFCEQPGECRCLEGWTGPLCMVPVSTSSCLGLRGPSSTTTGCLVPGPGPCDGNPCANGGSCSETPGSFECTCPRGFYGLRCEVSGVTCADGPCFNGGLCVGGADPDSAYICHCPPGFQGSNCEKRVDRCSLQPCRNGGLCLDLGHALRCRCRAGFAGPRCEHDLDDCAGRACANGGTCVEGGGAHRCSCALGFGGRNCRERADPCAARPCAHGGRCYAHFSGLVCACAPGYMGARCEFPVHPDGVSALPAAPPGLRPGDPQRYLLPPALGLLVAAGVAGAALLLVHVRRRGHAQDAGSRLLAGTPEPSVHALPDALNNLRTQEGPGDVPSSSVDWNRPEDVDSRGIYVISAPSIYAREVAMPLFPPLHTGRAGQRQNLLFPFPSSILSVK


Assays:
[1] = target: T1, Human DLL3 full-length protein on cells; experiment: FACS on H1184 cells
Procedure: (§1) Cells of the DLL3-expressing small cell lung cancer cell lines H1184 (ATCC, Cat. No. CRL-5858), DLL3/H82, cynoDLL3/CHO-s, and RatDLL3/CHO-s were suspended at 1×10^6/mL in FACS buffer (1% BSA+pH 7.4 PBS), and the cell suspensions were added to a 96-well round-bottom plate (Corning, 3795) at 100 μL/well. The plate was centrifuged at 300 g for 5 min, and the supernatant was removed. Different concentrations of test antibodies were added at 100 μL/well. The plate was incubated in the dark in a refrigerator at 4° C. for 1 h. After 3 washes by centrifugation at 300 g, working concentrations of APC anti-human IgG Fc (BioLegend, 410712) or PE F(ab′)2-goat anti-human IgG (invitrogen, H10104) were added. The plate was incubated in the dark in a refrigerator at 4° C. for 40 min. After 3 washes by centrifugation at 300 g, the geometric mean fluorescence intensity was measured on an Invitrogen flow cytometer, and the EC50 values of the antibodies in binding to DLL3-expressing cells were calculated.

[2] = target: T1, Human DLL3 full-length protein on cells; experiment: cell-based or functional assay
[3] = target: T3, Human DLL4 full-length protein on CHO-s cells (human, UniProt Q9NR61 27-685); experiment: FACS on human DLL4/CHO-s cells
T3 construct: also called human DLL4/CHO-s
Procedure: Stably transfected human DLL1/CHO-s and human DLL4/CHO-s cells were suspended at 1×10⁶/mL in FACS buffer (containing 1% BSA and pH 7.4 PBS), and the cell suspensions were added to a 96-well round-bottom plate (Corning, 3795) at 100 µL/well. The plate was centrifuged at 300 g for 5 min, and the supernatant was removed. Test antibodies were added at 100 μL/well, and the plate was incubated in the dark in a refrigerator at 4° C. for 1 h. After 3 washes by centrifugation at 300 g, working concentrations of PE F(ab′)2-goat anti-human IgG Fc secondary antibody (invitrogen, H10104) were added. The plate was incubated in the dark in a refrigerator at 4° C. for 40 min. After 3 washes by centrifugation at 300 g, the geometric mean fluorescence intensity was measured on an Invitrogen flow cytometer.

[4] = target: T2, Cynomolgus monkey DLL3 full-length …; experiment: FACS on cynoDLL3/CHO-s cells
Procedure: as §1

[5] = target: cynomolgus monkey DLL3 (KACTUS, DLL-RM103) (cynomolgus monkey); experiment: SPR (Biacore 8K), antibody captured on Protein A chip, 1:1 fit

T3 sequence (Q9NR61 27-685 limits assumed): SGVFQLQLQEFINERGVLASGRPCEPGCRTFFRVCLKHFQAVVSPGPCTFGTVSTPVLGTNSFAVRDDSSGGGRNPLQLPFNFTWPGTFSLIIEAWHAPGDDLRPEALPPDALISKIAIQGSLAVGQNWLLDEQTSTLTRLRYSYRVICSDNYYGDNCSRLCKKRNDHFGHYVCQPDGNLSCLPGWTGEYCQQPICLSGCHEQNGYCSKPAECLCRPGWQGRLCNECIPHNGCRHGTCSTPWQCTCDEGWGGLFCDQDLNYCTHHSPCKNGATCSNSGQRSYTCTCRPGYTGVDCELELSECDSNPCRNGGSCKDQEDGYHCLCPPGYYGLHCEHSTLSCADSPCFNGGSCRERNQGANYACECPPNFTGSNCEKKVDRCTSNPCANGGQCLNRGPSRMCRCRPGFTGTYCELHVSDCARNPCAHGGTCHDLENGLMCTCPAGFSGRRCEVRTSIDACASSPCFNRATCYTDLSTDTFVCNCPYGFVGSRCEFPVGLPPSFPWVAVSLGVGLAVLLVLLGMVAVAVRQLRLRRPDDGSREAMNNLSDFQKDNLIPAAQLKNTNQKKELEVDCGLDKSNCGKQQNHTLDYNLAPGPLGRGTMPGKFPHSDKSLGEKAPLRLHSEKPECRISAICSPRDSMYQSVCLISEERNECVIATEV

| Binder | EC50 [1] [nM] | Emax [1] | IC50 (nM), cell killing caused by endocytosis of antibodies (DT3C, DMS53/DLL3 cells) [2] [nM] | Imax, cell killing caused by endocytosis of antibodies (DT3C, DMS53/DLL3 cells) [2] | binding result [3] | EC50 [4] [nM] | Emax [4] | Kd [5] [nM] |
| --- | --- | --- | --- | --- | --- | --- | --- | --- |
| Hu6 (antibody, human IgG1, kappa, V domains shown, also called hAb6L4H12) VH: EVQLVQSGSELKKPGASVKVSCKASGYTFTDYYMNWVRQAPGQGLEWMGIINPYSGVTIYNHKFKGRFALSVDKSSNTAYLQISSLKAEDTAVYYCARQDSLLDYAMDYWGQGTTVTVSS VL: DIQMTQSPSSLSASVGDRVTITCHASQGISGNMGWLQQKPGKAPKGLIYHGANLEDGVPSRFSGSGSGADYTLTISSLQPEDFADYYCVQYAQFPYTFGGGTKVEIKR | 0.06 | 2070 | 0.56 | 87.2 | no binding | 0.32 | 1760 | 1.31 |
| Hu100 (antibody, human IgG1, kappa, V domains shown, also called hAb100L1H1) VH: EVQLVESGGGLVKPGGSLRLSCAASGFTFSDSGMHWIRQAPGKGLEWVSYISSGSSTIHYADTVKGRFTISRDNAKNSLYLQMNSLRAEDTAVYYCASPLYYYGRSYNAVAYWGQGTTVTVSS VL: DIQMTQSPSSLSASVGDRVTITCHASQNINVWLSWYQQKPGKVPKLLIYKASDLHTGVPSRFSGSGSGTDFTLTISSLQPEDVATYYCQQGQSYPLTFGGGTKVEIKR | 0.15 | 2110 | 1.47 | 86.1 | no binding | 0.55 | 2080 | 1.11 |
